Data on two molecules can be found in patent US20020164762A1 (BASF AKTIENGESELLSCHAFT, published 2002).

The target of this test is T1, N-His-tagged p20 subunit of human ICE (human, UniProt P29466 120-297).
T1 construct: Subunit released from N-His p30 by autoprocessing
T1 sequence: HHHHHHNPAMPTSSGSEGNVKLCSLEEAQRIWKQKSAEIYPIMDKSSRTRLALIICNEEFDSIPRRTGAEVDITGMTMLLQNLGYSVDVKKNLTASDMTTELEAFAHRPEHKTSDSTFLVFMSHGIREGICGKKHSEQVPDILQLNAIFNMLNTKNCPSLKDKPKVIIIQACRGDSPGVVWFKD
Description: co-expression as N-His p30 in E. coli, nickel chelating column purification. The source says: ICE (WT or modified) with an N-terminal polyhistidine tag was expressed in E. coli and purified using methodology described in Kamens et al. (1995) J. Biol. Chem., 270:15250-15256. Briefly, a DNA fragment encoding amino acid residues 120 to 404 of wild-type or D381E-modified ICE (p30) was cloned into an expression vector such that the p30-encoding fragment was fused in-frame at its N-terminus to DNA encoding six histidine residues. Following expression, the p30 fragment is correctly processed to p20 and p10 subunits, which associate to form mature, active N-His-tagged ICE proteins. The N-His ICE fusion proteins then were purified on a nickel chelating column (Porath, J. (1992) Protein Expression and Purification 2:263-281).

B1: wild-type p10 subunit of human ICE (other)
chain: AIKKAHIEKDFIAFCSSTPDNVSWRHPTMGSVFIGRLIEHMQEYACSCDVEEIFRKVRFSFEQPDGRAQMPTTERVTLTRCFYLFPGH
notes: Subunit released from WT N-His p30 by autoprocessing; also called ICE 317-404
Turning to B1, the binding result was “binds”.

B2: D381E-modified p10 subunit of human ICE (other)
chain: AIKKAHIEKDFIAFCSSTPDNVSWRHPTMGSVFIGRLIEHMQEYACSCDVEEIFRKVRFSFEQPEGRAQMPTTERVTLTRCFYLFPGH
notes: Subunit released from D381E N-His p30 by autoprocessing; also called p10 D381E; ICE 317-404 D381E
In the case of B2, the binding result is on record as “binds”.
